# Where a chain is given by its changes, count along the chain named.
# B1: FY1/39 BiS1 100/44 (bispecific antibody)
# light: DIQMTQSPSSVSASVGDRVTITCRASQDISTWLAWYQQKPGKAPKLLIYAASSLQSGVPSRFSGSGSGTDFTLTISSLQPEDFATYFCQQANSFPPTFGCGTKLEIKGGGGSGGGGSGGGGSGGGGSEVQLVVSGGGLVKPGGSLRLSCAASGLSFLNAWMSWVRQAPGKCLEWVGRIKSNTDGGTTDYAAPVKGRFSISRDDSKNMLFLHMSSLRTEDTAVYYCATDGPYSDDFRSGYAARYRYFGMDVWGQGTTVTVSSGGGGSGGGGSDIQMTQSPSSLSASVGDRVTITCRTSQSLSSYLHWYQQKPGKAPKLLIYAASSLQSGVPSRFSGSGSGTDFTLTISSLQPEDFATYYCQQSRTFGQGTKVEIKRTVAAPSVFIFPPSDEQLKSGTASVVCLLNNFYPREAKVQWKVDNALQSGNSQESVTEQDSKDSTYSLSSTLTLSKADYEKHKVYACEVTHQGLSSPVTKSFNRGEC
# heavy: not shown
# B2: FY1/39 BiS4 100/44 (bispecific antibody)
# light: DIQMTQSPSSLSASVGDRVTITCRTSQSLSSYLHWYQQKPGKAPKLLIYAASSLQSGVPSRFSGSGSGTDFTLTISSLQPEDFATYYCQQSRTFGQGTKVEIKRTVAAPSVFIFPPSDEQLKSGTASVVCLLNNFYPREAKVQWKVDNALQSGNSQESVTEQDSKDSTYSLSSTLTLSKADYEKHKVYACEVTHQGLSSPVTKSFNRGEC
# heavy: not shown
# B3: FY1/39 BiS2 100/44 (bispecific antibody)
# light: B2 light
# heavy: not shown
# B4: FY1/94 BiS4 100/44 (bispecific antibody)
# light: B2 light
# heavy: not shown
# B5: FY1/94 BiS2 100/44 (bispecific antibody)
# light: B2 light
# heavy: not shown
# B6: FY1/39 BiS4 43/105 (bispecific antibody)
# light: B2 light
# heavy: not shown
# B7: GL20/39FTL BiS4 43/105 (bispecific antibody)
# light: B2 light with L33T, L54R, Q55G
# heavy: not shown
# B8: GL20/39FTL BiS4 100/44 (bispecific antibody)
# light: DIQMTQSPSSLSASVGDRVTITCRTSQSLSSYTHWYQQKPGKAPKLLIYAASSRGSGVPSRFSGSGSGTDFTLTISSLQPEDFATYYCQQSRTFGQGTKVEIK
# heavy (part 1 of 2): QVQLQQSGPGLVKPSQTLSLTCAISGDSVSSYNAVWNWIRQSPSRGLEWLGRTYYRSGWYNDYAESVKSRITINPDTSKNQFSLQLNSVTPEDTAVYYCARSGHITVFGVNVDAFDMWGQGTMVTVSS
# heavy (part 2 of 2): DIQMTQSPSSVSASVGDRVTITCRASQDISTWLAWYQQKPGKAPKLLIYAASSLQSGVPSRFSGSGSGTDFTLTISSLQPEDFATYYCQQANSFPPTFGCGTKLEIKGGGGSGGGGSGGGGSGGGGSEVQLVESGGGLVKPGGSLRLSCAASGFTFLNAWMSWVRQAPGKCLEWVGRIKSNTDGGTTDYAAPVKGRFTISRDDSKNTLYLQMSSLKTEDTAVYYCTTDGPYSDDFRSGYAARYRYFGMDVWGQGTTVTVSS
# B9: FY1 IgG (antibody, V domains shown)
# VH: B8 heavy (part 1 of 2) with Q6E, Y32N, G58K, I73V, Q85H, N87K, Y97F, A100V
# VL: B8 light with T33L, R54L, G55Q
# B10: FBD94 IgG (antibody, V domains shown)
# VH: EVQLVESGGGLVQPGRSLRLSCAVSGFIFEDYAINWVRQAPGKGLEWVSIISWDSGRIGYADSVRGRFTISRDNAKNSSFLQMNSLRPEDTAVYYCVKDMLAYYYDGSGIRYNLYGMDVWGQGTTVTVSS
# VL: EIVLTQSPATLSLSPGERATLSCRASRSITTFLAWYQQKPGQAPRLLIYDASNRATGVPARFSGSGSGTDFTLTINSLEPDDFAIYYCQQRDHWPPIFGQGTRLEIK
# Legend:
# Assay in all cases: cell-based or functional assay
# [1] = molecular target: HA of A/Beijing/262/95 (H1N1) (influenza A virus)
# [2] = molecular target: HA of A/Shan dong/9/93 (H3N2) (influenza A virus)
# [3] = molecular target: HA of A/Hong Kong/8/68 (H3N2) (influenza A virus)
# [4] = molecular target: HA of B/Malaysia/2506/2004 (victoria) (influenza B virus)
# [5] = molecular target: HA of ca A/Panama/2007/99 (H3N2) (influenza A virus)
# [6] = molecular target: HA of A/Wilson Smith N/33 (H1N1) (influenza A virus, UniProt P03454 18-565)
# [7] = molecular target: HA of B/Hong Kong/330/2001 (victoria) (influenza B virus)
# [8] = molecular target: HA of B/Florida/4/2006 (yamagata) (influenza B virus)
# [9] = molecular target: HA of B/Ohio/1/2005 (victoria) (influenza B virus)
# [10] = molecular target: HA of ca B/Beijing/243/97 (victoria) (influenza B virus)
# [11] = molecular target: HA of A/Solomon Island/3/2006 (H1N1) (influenza A virus)
# [12] = molecular target: HA of B/Yamanashi/166/98 (yamagata) (influenza B virus)
# [13] = molecular target: HA of A/California/07/2009 (H1N1) (influenza A virus)
# [14] = molecular target: HA of A/Victoria/3/75 (H3N2) (influenza A virus)
# [15] = molecular target: HA of B/Sichuan/379/99 (yamagata) (influenza B virus)
# HA of A/Wilson Smith N/33 (H1N1), sequence (P03454 18-565 limits assumed): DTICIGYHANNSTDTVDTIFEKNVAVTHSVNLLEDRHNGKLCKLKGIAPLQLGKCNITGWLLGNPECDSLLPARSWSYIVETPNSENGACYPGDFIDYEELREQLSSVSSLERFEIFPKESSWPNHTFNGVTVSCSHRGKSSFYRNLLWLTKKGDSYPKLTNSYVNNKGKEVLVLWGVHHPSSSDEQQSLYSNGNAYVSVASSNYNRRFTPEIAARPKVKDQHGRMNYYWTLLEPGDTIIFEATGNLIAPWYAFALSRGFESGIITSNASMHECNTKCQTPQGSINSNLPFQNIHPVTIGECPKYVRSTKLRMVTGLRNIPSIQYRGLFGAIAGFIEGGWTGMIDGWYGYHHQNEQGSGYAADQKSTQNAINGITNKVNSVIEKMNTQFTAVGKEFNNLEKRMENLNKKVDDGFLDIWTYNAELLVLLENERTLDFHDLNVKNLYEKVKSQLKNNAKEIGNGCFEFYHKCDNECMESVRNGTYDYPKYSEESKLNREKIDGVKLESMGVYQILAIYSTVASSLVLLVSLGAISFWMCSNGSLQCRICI
Binder,Neutralization (IC50) [1] [nM],Neutralization (IC50) [2] [nM],Neutralization (IC50) [3] [nM],Neutralization (IC50) [4] [nM],Neutralization (IC50) [5] [nM],Neutralization (IC50) [6] [nM],Neutralization (IC50) [7] [nM],Neutralization (IC50) [8] [nM],Neutralization (IC50) [9] [nM],Neutralization (IC50) [10] [nM],Neutralization (IC50) [11] [nM],Neutralization (IC50) [12] [nM],Neutralization (IC50) [13] [nM],Neutralization (IC50) [14] [nM],Neutralization (IC50) [15] [nM]
B1,62.2,> 1000,31.4,4.1,> 1000,28.2,5.3,1.1,2.6,3.6,14.7,0.1,32.5,337,1.5
B2,20.2,12.8,10.6,27.6,152,10.6,69.3,3.6,5.6,5.8,3.9,0.9,8.2,26.4,8.2
B3,61.3,72.1,10.2,5.6,> 1000,17.7,7,1.7,2.8,6.1,9.9,0.4,18.7,> 1000,2.1
B4,13.1,37.9,9.1,1.8,38.2,7.3,4,1.8,3,1.8,2.5,2.3,6.2,7.2,5.2
B5,42,208,17.2,0.8,484,19.9,2.1,0.6,1.3,1.1,4.1,0.5,23.1,15.8,1.7
B6,10.9,20.4,4,12.6,52.7,4.3,19.1,1.6,5.4,2.6,2.6,0.6,7.1,6.5,3.5
B7,11.8,22.2,6.3,16.2,35.5,9.6,164,4.2,17.5,23.5,3.8,1.1,20.8,14.9,8.7
B8,16.4,21.9,10.8,42.8,34.1,13.7,106,7.3,20.9,96.2,4.4,1.4,25.4,13.3,9.8
B9,21,34.6,10.6,> 1000,104,8.8,> 1000,> 1000,> 1000,> 1000,3.1,> 1000,10.4,12,> 1000
B10,> 1000,> 1000,> 1000,0.1,> 1000,> 1000,0.1,0.1,–,0.1,> 1000,0.1,> 1000,> 1000,0.2
